Reference: patent US6248712

Columns and labels:
[1] = molecular target: human single-chain pro-u-PA (human) (UniProt P00749)
[2] = molecular target: u-PA bound to u-PAR on the cell surface (human) (UniProt P00749); assay: inhibition kinetics, u-PAR-bound u-PA on U937 cells against u-PA in solution
[3] = molecular target: u-PA bound to u-PAR on the cell surface (human) (UniProt P00749); assay: association rate constant from inhibition kinetics of plasminogen activation by u-PAR-bound u-PA on U937 cells
[4] = molecular target: u-PA bound to u-PAR on the cell surface (human) (UniProt P00749); assay: association rate constant from inhibition kinetics of plasminogen activation by u-PAR-bound u-PA on PMA-stimulated U937 cells
[5] = molecular target: u-PA bound to u-PAR on the cell surface (human) (UniProt P00749); assay: inhibition kinetics, u-PAR-bound u-PA on PMA-stimulated U937 cells against u-PA in solution
[6] = molecular target: human urokinase-type plasminogen activator, active two-chain 54 kD form (human) (UniProt P00749)
[7] = molecular target: u-PA bound to u-PAR on the cell surface (human) (UniProt P00749)

plasminogen activator inhibitor type 2, sequence (P05120 whole entry): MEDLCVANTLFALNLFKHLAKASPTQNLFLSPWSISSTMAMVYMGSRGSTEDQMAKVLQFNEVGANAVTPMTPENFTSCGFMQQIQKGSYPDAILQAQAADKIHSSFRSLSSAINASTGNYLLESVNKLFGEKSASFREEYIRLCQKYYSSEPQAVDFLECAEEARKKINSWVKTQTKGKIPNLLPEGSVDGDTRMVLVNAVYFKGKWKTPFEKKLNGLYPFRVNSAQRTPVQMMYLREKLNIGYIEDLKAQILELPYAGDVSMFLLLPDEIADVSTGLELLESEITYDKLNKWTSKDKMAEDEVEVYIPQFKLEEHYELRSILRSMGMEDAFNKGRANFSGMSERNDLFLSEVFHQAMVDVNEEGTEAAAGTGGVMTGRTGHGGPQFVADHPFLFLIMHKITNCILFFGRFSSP
human plasmin, sequence (P00747 97-810 limits assumed): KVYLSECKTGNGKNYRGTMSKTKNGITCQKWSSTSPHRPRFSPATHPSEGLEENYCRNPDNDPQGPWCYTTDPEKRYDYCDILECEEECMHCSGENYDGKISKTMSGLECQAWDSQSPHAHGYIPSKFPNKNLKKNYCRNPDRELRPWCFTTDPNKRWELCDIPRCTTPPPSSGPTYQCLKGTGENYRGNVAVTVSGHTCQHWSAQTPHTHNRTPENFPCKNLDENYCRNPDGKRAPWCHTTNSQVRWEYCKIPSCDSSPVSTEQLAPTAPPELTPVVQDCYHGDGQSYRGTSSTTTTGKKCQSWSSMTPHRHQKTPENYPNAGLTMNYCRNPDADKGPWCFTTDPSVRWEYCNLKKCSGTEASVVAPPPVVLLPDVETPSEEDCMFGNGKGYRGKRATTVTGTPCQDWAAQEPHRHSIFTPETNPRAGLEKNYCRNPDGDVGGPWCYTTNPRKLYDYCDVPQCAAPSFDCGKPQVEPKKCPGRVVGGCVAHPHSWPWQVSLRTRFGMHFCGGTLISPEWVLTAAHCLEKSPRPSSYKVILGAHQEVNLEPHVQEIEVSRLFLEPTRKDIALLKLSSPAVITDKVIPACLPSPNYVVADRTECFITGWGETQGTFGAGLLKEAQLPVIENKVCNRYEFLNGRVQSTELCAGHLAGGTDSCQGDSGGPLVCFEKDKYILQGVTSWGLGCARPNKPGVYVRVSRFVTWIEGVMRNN

| Substance | generation of u-PA amidolytic activity from pro-u-PA (ng/ml equivalent two-chain u-PA per min) [1] | rate of inhibition relative to u-PA in solution [2] | kon [3] | kon [4] | rate of inhibition relative to u-PA in solution [5] | association-rate constant relative to u-PA in solution [2] | Bound plasmin activity (%) at 3 h and 17 h; u-PA activity in medium (%) [6] | Bound plasmin activity (%) after preincubation of the cells and washing [7] |
| --- | --- | --- | --- | --- | --- | --- | --- | --- |
| human plasmin (from UniProt P00747) (enzyme) | 0.6 |  |  |  |  |  |  |  |
| plasminogen activator inhibitor type 1 (from UniProt P05121) |  | 60% | 4.5e+06 M⁻¹ s⁻¹ | 1.7e+06 M⁻¹ s⁻¹ | 20% |  |  |  |
| plasminogen activator inhibitor type 2 (from UniProt P05120) |  |  | 330000 M⁻¹ s⁻¹ | 110000 M⁻¹ s⁻¹ |  | 60% | 48% | 54% |
